For 11 substances, retention time on FcRn affinity column, relative shift of retention time and FcRn-affinity column retention time results are on record in patent publication US20160151487A1.

The target of the first assay is human neonatal Fc-receptor (FcRn), soluble extracellular domain with His-Avi Tag, co-expressed with beta-2-microglobulin (human) (UniProt P55899). Description: FcRn affinity chromatography.
Chain of human neonatal Fc-receptor (FcRn), soluble extracellular domain with His-Avi Tag, co-expressed with beta-2-microglobulin (human) (P55899 24-297 limits assumed, chain 1 of 2): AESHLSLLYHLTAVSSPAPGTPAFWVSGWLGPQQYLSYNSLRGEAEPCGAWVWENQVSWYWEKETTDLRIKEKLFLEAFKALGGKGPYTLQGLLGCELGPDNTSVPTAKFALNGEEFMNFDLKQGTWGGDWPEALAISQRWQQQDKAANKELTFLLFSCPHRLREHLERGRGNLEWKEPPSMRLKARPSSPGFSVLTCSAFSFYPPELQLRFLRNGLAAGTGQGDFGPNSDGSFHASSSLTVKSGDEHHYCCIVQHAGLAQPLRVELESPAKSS
Chain of human neonatal Fc-receptor (FcRn), soluble extracellular domain with His-Avi Tag, co-expressed with beta-2-microglobulin (human) (P61769 21-119 limits assumed, chain 2 of 2, further chain): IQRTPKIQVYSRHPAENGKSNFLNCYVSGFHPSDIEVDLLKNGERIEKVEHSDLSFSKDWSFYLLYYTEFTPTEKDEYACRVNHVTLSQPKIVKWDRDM
For “bispecific antibody (not identified, knobs-into-holes), one chain with I253A”, the retention time on FcRn affinity column came to 48.8 min.
On the same count and under the same terms, the same measure for “bispecific antibody (not identified, knobs-into-holes), one chain with L251D/L314D/L432D”: 46.3 min.
For “bispecific antibody (not identified, knobs-into-holes), one chain with H310A/H433A/Y436A”, the retention time on FcRn affinity column is 46.7 min.
On the same count and under the same terms, the same measure for “bispecific antibody (not identified, knobs-into-holes), one chain with I253A/H310A/H435A”: 46.6 min; for “bispecific antibody (not identified, knobs-into-holes), one chain with H310A”: 48.4 min.
“bispecific antibody (not identified, knobs-into-holes), one chain with M252Y/S254T/T256E” returned a retention time on FcRn affinity column of 56.2 min.
Take “bispecific antibody (not identified) assembled using the knobs-into-holes technology, no FcRn affecting mutation”: the retention time on FcRn affinity column came to 51.8 min.
“bispecific antibody (not identified, knobs-into-holes), one chain with H435A” had a retention time on FcRn affinity column of 48.8 min.
As to “IgG1 antibody (not identified) with L234A/L235A/P329G and I253A in both Fc-region polypeptides”, the relative shift of retention time was 0.3 to 0.4 min.
Regarding “IgG1 antibody (not identified) with L234A/L235A/P329G and H435A in both Fc-region polypeptides”, the relative shift of retention time was in the range of 0.3 to 0.4 min.

For the next assay the target is unchanged. Description: FcRn affinity chromatography, pH gradient.
On to “IgG1 antibody (not identified) with L234A/L235A/P329G and Y436A in both Fc-region polypeptides”, for which the FcRn-affinity column retention time was determined as 41.3 min.
